Laboratory results: patent US20190161539A1 (published 2019)

Columns and labels:
human tau aggregates = biological target: T1, human tau aggregates (human, UniProt P10636 2-758); assay: SPR (BIACORE 2000), antibody captured on protein A, 1:1 fit
T1 construct: also called fibril tau; tau fibril aggregate
Procedure: (§1) Except as noted, all reagents and materials are from BIACORE® AB (Upsala, Sweden). A CM5 chip containing immobilized protein A (generated using standard NHS-EDC amine coupling) on all four flow cells (FC) is used to employ a capture methodology. Antibody samples are prepared at 0.5 μg/mL by dilution into running buffer. Monomeric tau and fibril tau are prepared to concentrations of 2000, 1000, 500, 250, 125, 62.5, 31.25, 15.63, 7.82, 3.91, 1.95, and 0 (blank) nM by dilution into running buffer. Each analysis cycle consists of: (1) capturing antibody samples on separate flow cells (FC2, FC3, and FC4); (2) injection of 250 μL (300 sec) of either monomeric tau or tau fibril aggregate over respective FC at a rate of 50 μL/min; (3) return to buffer flow for 20 mins. to monitor dissociation phase; (4) regeneration of chip surfaces with 25 μL (30 sec) injection of glycine, pH1.5; (5) equilibration of chip surfaces with a 50 μL (60 sec) injection of HBS-EP+.
Data of binding to tau aggregate is processed using standard double-referencing and fit to a 1:1 binding model using Biacore 2000 Evaluation software, version 4.1, to determine the association rate (kₒₙ, M⁻¹s⁻¹ units), dissociation rate (koff, s⁻¹ units), and Rₘₐₓ (RU units). The equilibrium dissociation constant (KD) was calculated from the relationship KD=koff/kₒₙ, and is in molar units. […] Therefore, KD for binding to monomeric tau is obtained by using a steady state binding fit model from plotting the concentration of antigen versus the response unit.

[1] = biological target: T2, human monomeric (native or non-aggregate) tau (human, UniProt P10636 2-758); assay: SPR (BIACORE 2000), antibody captured on protein A, steady state fit
T2 construct: also called Monomeric Tau; monomeric tau
T2 sequence (P10636 other isoform, or with tags, fused parts or gaps limits assumed): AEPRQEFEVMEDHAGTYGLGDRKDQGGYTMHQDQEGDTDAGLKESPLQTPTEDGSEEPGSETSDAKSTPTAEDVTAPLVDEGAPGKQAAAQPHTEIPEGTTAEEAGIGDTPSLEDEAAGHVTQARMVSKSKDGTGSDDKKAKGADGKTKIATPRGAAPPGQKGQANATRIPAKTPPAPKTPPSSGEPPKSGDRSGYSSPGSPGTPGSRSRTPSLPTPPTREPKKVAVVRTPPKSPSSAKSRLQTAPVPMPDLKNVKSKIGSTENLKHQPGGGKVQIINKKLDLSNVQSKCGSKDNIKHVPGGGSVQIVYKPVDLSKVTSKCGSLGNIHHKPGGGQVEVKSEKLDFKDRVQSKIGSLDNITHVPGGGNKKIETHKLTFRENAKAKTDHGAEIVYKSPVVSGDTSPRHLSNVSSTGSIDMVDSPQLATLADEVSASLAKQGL
Procedure: as §1
Data of binding to tau aggregate is processed using standard double-referencing and fit to a 1:1 binding model using Biacore 2000 Evaluation software, version 4.1, to determine the association rate (kₒₙ, M⁻¹s⁻¹ units), dissociation rate (koff, s⁻¹ units), and Rₘₐₓ (RU units). The equilibrium dissociation constant (KD) was calculated from the relationship KD=koff/kₒₙ, and is in molar units. […]

[2] = biological target: T3, aggregate tau fibrils purified from AD brain homogenates (human, UniProt P10636-8 2-441, limits assumed); assay: ELISA on coated tau fibrils purified from AD brain
T3 construct: Brain-derived aggregates; also called Purified AD Tau Fibrils; purified tau fibrils
T3 sequence (P10636 other isoform, or with tags, fused parts or gaps limits assumed): as above

[3] = biological target: T4, β-amyloid peptide (1-42) conjugated to BSA (C-terminal Cys43 coupled to maleimide-activated bovine serum albumin); assay: competition ELISA on coated Aβ1-42-BSA against biotinylated Mu266, second set of three experiments
T4 construct: Coated on the ELISA plate; BSA carrier not written as a chain; also called Aβ1-42-BSA conjugate; Aβ1-42-Cys-BSA conjugate
Procedure: (§2) The Aβ₁₋₄₂-BSA conjugate was prepared by dissolving 7.5 mg of Aβ₁₋₄₂-Cys₄₃ (C-terminal cysteine Aβ₁₋₄₂, AnaSpec) in 500 μL of dimethylsulfoxide, and then immediately adding 1,500 μL of distilled water. Two (2) milligrams of maleimide-activated bovine serum albumin (Pierce) was dissolved in 200 μL of distilled water. The two solutions were combined, thoroughly mixed, and allowed to stand at room temperature for two (2) hours. A gel chromatography column was used to separate unreacted peptide from Aβ₁₋₄₂-Cys-BSA conjugate.
(§3) After washing the wells with phosphate buffered saline (PBS) containing 0.1% Tween 20 (Washing Buffer) using an ELISA plate washer, the wells were blocked by adding 300 μL of SuperBlock reagent (Pierce) per well. After 30 minutes of blocking, the wells were washed Washing Buffer and excess liquid was removed.
(§4) As a background control, 100 μl of ELISA Buffer was added. The ELISA plate was incubated at room temperature for 90 min. After washing the wells with Washing Buffer, 100 μl of 1 μg/ml HRP-conjugated streptavidin (Cat #21124, Pierce) was added to each well. […] Absorbance was read at 415 nm. The absorbances were plotted against the log of the competitor concentration, curves were fit to the data points (using Prism) and the IC50 was determined for each antibody using methods well-known in the art.

[4] = biological target: T4, β-amyloid peptide (1-42) conjugated to …; assay: competition ELISA on coated Aβ1-42-BSA against biotinylated Mu266, first set of three experiments
Procedure: as §2, §3, §4

Aβ1-42 = assay: method only given as 'essentially as described above' (KD=Kd/Ka)

T1 sequence (P10636 other isoform, or with tags, fused parts or gaps limits assumed): as above

Binder | Kd (human tau aggregates) [pM] | koff (human tau aggregates) [s⁻¹] | kon (human tau aggregates) [M⁻¹ s⁻¹] | Kd [1] [pM] | EC50 [2] [pM] | IC50 [3] [µg/mL] | IC50 [4] [µg/mL] | Kd (Aβ1-42) [pM]
Exemplified anti-Tau antibody (having both HCs of SEQ ID NO.68 and both LCs of SEQ ID NO.67) (antibody, human IgG4 S228P, kappa, F234A L235A, V domains shown, also called Exemplified anti-Tau mAb; exemplified tau monoclonal antibody) VH: EVQLVQSGAEVKKPGESLKISCKGSGYTFSNYWIEWVRQMPGKGLEWMGEILPGSDSIKYEKNFKGQVTISADKSISTAYLQWSSLKASDTAMYYCARRGNYVDDWGQGTLVTVSS VL: EIVLTQSPGTLSLSPGERATLSCRSSQSLVHSNQNTYLHWYQQKPGQAPRLLIYKVDNRFSGIPDRFSGSGSGTDFTLTISRLEPEDFAVYYCSQSTLVPLTFGGGTKVEIKR | < 220 | < 1e-05 | 45900 | 235000 | 6.8 |  |  | 
humanized 266 antibody (Hu266) (antibody, human IgG1, kappa, V domains shown, Mature antibody expressed from pVk-Hu266 and pVg1-Hu266 in Sp2/0 cells; also called exemplified anti-Aβ antibody) VH: EVQLVESGGGLVQPGGSLRLSCAASGFTFSRYSMSWVRQAPGKGLELVAQINSVGNSTYYPDTVKGRFTISRDNAKNTLYLQMNSLRAEDTAVYYCASGDYWGQGTLVTVSS VL: DVVMTQSPLSLPVTLGQPASISCRSSQSLIYSDGNAYLHWFLQKPGQSPRLLIYKVSNRFSGVPDRFSGSGSGTDFTLKISRVEAEDVGVYYCSQSTHVPWTFGQGTKVEIKR |  |  |  |  |  | 4 | 7.5 | 4
